Earlier results as cited in patent US20050261189A1, “Methods of promoting cardiac cell proliferation” (Hydra Biosciences, Inc., priority 2004, published 2005).

B1: Wnt1: Wnt polypeptide (protein, UniProt P04628 28-370, looked up)
Proto-oncogene Wnt-1: ANSSGRWWGIVNVASSTNLLTDSKSLQLVLEPSLQLLSRKQRRLIRQNPGILHSVSGGLQSAVRECKWQFRNRRWNCPTAPGPHLFGKIVNRGCRETAFIFAITSAGVTHSVARSCSEGSIESCTCDYRRRGPGGPDWHWGGCSDNIDFGRLFGREFVDSGEKGRDLRFLMNLHNNEAGRTTVFSEMRQECKCHGMSGSCTVRTCWMRLPTLRAVGDVLRDRFDGASRVLYGNRGSNRASRAELLRLEPEDPAHKPPSPHDLVYFEKSPNFCTYSGRLGTAGTAGRACNSSSPALDGCELLCCGRGHRTRTQRVTERCNCTFHWCCHVSCRNCTHTRVLHECL
B2: Wnt8b: Wnt polypeptide (protein, UniProt Q93098 23-351, looked up)
Protein Wnt-8b: WSVNNFLMTGPKAYLIYSSSVAAGAQSGIEECKYQFAWDRWNCPERALQLSSHGGLRSANRETAFVHAISSAGVMYTLTRNCSLGDFDNCGCDDSRNGQLGGQGWLWGGCSDNVGFGEAISKQFVDALETGQDARAAMNLHNNEAGRKAVKGTMKRTCKCHGVSGSCTTQTCWLQLPEFREVGAHLKEKYHAALKVDLLQGAGNSAAGRGAIADTFRSISTRELVHLEDSPDYCLENKTLGLLGTEGRECLRRGRALGRWERRSCRRLCGDCGLAVEERRAETVSSCNCKFHWCCAVRCEQCRRRVTKYFCSRAERPRGGAAHKPGRKP
B3: Wnt11: Wnt polypeptide (protein, UniProt O96014 25-354, looked up)
Protein Wnt-11: IKWLALSKTPSALALNQTQHCKQLEGLVSAQVQLCRSNLELMHTVVHAAREVMKACRRAFADMRWNCSSIELAPNYLLDLERGTRESAFVYALSAAAISHAIARACTSGDLPGCSCGPVPGEPPGPGNRWGGCADNLSYGLLMGAKFSDAPMKVKKTGSQANKLMRLHNSEVGRQALRASLEMKCKCHGVSGSCSIRTCWKGLQELQDVAADLKTRYLSATKVVHRPMGTRKHLVPKDLDIRPVKDSELVYLQSSPDFCMKNEKVGSHGTQDRQCNKTSNGSDSCDLMCCGRGYNPYTDRVVERCHCKYHWCCYVTCRRCERTVERYVCK
B4: Wnt3: Wnt polypeptide (protein, UniProt P56703 22-355, looked up)
Proto-oncogene Wnt-3: GYPIWWSLALGQQYTSLGSQPLLCGSIPGLVPKQLRFCRNYIEIMPSVAEGVKLGIQECQHQFRGRRWNCTTIDDSLAIFGPVLDKATRESAFVHAIASAGVAFAVTRSCAEGTSTICGCDSHHKGPPGEGWKWGGCSEDADFGVLVSREFADARENRPDARSAMNKHNNEAGRTTILDHMHLKCKCHGLSGSCEVKTCWWAQPDFRAIGDFLKDKYDSASEMVVEKHRESRGWVETLRAKYSLFKPPTERDLVYYENSPNFCEPNPETGSFGTRDRTCNVTSHGIDGCDLLCCGRGHNTRTEKRKEKCHCIFHWCCYVSCQECIRIYDVHTCK
B5: Wnt5b: Wnt polypeptide (protein, UniProt Q9H1J7 18-359, looked up)
Protein Wnt-5b: QLLTDANSWWSLALNPVQRPEMFIIGAQPVCSQLPGLSPGQRKLCQLYQEHMAYIGEGAKTGIKECQHQFRQRRWNCSTADNASVFGRVMQIGSRETAFTHAVSAAGVVNAISRACREGELSTCGCSRTARPKDLPRDWLWGGCGDNVEYGYRFAKEFVDAREREKNFAKGSEEQGRVLMNLQNNEAGRRAVYKMADVACKCHGVSGSCSLKTCWLQLAEFRKVGDRLKEKYDSAAAMRVTRKGRLELVNSRFTQPTPEDLVYVDPSPDYCLRNESTGSLGTQGRLCNKTSEGMDGCELMCCGRGYNQFKSVQVERCHCKFHWCCFVRCKKCTEIVDQYICK
B6: Wnt9a: Wnt polypeptide (protein, UniProt O14904 30-365, looked up)
Protein Wnt-9a: YFGLTGSEPLTILPLTLEPEAAAQAHYKACDRLKLERKQRRMCRRDPGVAETLVEAVSMSALECQFQFRFERWNCTLEGRYRASLLKRGFKETAFLYAISSAGLTHALAKACSAGRMERCTCDEAPDLENREAWQWGGCGDNLKYSSKFVKEFLGRRSSKDLRARVDFHNNLVGVKVIKAGVETTCKCHGVSGSCTVRTCWRQLAPFHEVGKHLKHKYETALKVGSTTNEAAGEAGAISPPRGRASGAGGSDPLPRTPELVHLDDSPSFCLAGRFSPGTAGRRCHREKNCESICCGRGHNTQSRVVTRPCQCQVRWCCYVECRQCTQREEVYTCKG
B7: Wnt8a: Wnt polypeptide (protein, UniProt Q9H1J5 25-351, looked up)
Protein Wnt-8a: VNNFLITGPKAYLTYTTSVALGAQSGIEECKFQFAWERWNCPENALQLSTHNRLRSATRETSFIHAISSAGVMYIITKNCSMGDFENCGCDGSNNGKTGGHGWIWGGCSDNVEFGERISKLFVDSLEKGKDARALMNLHNNRAGRLAVRATMKRTCKCHGISGSCSIQTCWLQLAEFREMGDYLKAKYDQALKIEMDKRQLRAGNSAEGHWVPAEAFLPSAEAELIFLEESPDYCTCNSSLGIYGTEGRECLQNSHNTSRWERRSCGRLCTECGLQVEERKTEVISSCNCKFQWCCTVKCDQCRHVVSKYYCARSPGSAQSLGKGSA
B8: Wnt9b: Wnt polypeptide (protein, UniProt O14905 23-357, looked up)
Protein Wnt-9b: SYFGLTGREVLTPFPGLGTAAAPAQGGAHLKQCDLLKLSRRQKQLCRREPGLAETLRDAAHLGLLECQFQFRHERWNCSLEGRMGLLKRGFKETAFLYAVSSAALTHTLARACSAGRMERCTCDDSPGLESRQAWQWGVCGDNLKYSTKFLSNFLGSKRGNKDLRARADAHNTHVGIKAVKSGLRTTCKCHGVSGSCAVRTCWKQLSPFRETGQVLKLRYDSAVKVSSATNEALGRLELWAPARQGSLTKGLAPRSGDLVYMEDSPSFCRPSKYSPGTAGRVCSREASCSSLCCGRGYDTQSRLVAFSCHCQVQWCCYVECQQCVQEELVYTCKH
B9: Wnt7b: Wnt polypeptide (protein, UniProt P56706 25-349, looked up)
Protein Wnt-7b: ALSSVVALGANIICNKIPGLAPRQRAICQSRPDAIIVIGEGAQMGINECQYQFRFGRWNCSALGEKTVFGQELRVGSREAAFTYAITAAGVAHAVTAACSQGNLSNCGCDREKQGYYNQAEGWKWGGCSADVRYGIDFSRRFVDAREIKKNARRLMNLHNNEAGRKVLEDRMQLECKCHGVSGSCTTKTCWTTLPKFREVGHLLKEKYNAAVQVEVVRASRLRQPTFLRIKQLRSYQKPMETDLVYIEKSPNYCEEDAATGSVGTQGRLCNRTSPGADGCDTMCCGRGYNTHQYTKVWQCNCKFHWCCFVKCNTCSERTEVFTCK
B10: Wnt4: Wnt polypeptide (protein, UniProt P56705 23-351, looked up)
Protein Wnt-4: SNWLYLAKLSSVGSISEEETCEKLKGLIQRQVQMCKRNLEVMDSVRRGAQLAIEECQYQFRNRRWNCSTLDSLPVFGKVVTQGTREAAFVYAISSAGVAFAVTRACSSGELEKCGCDRTVHGVSPQGFQWSGCSDNIAYGVAFSQSFVDVRERSKGASSSRALMNLHNNEAGRKAILTHMRVECKCHGVSGSCEVKTCWRAVPPFRQVGHALKEKFDGATEVEPRRVGSSRALVPRNAQFKPHTDEDLVYLEPSPDFCEQDMRSGVLGTRGRTCNKTSKAIDGCELLCCGRGFHTAQVELAERCSCKFHWCCFVKCRQCQRLVELHTCR
B11: Wnt16: Wnt polypeptide (protein, UniProt Q9UBV4 30-365, looked up)
Protein Wnt-16: NWMWLGIASFGVPEKLGCANLPLNSRQKELCKRKPYLLPSIREGARLGIQECGSQFRHERWNCMITAAATTAPMGASPLFGYELSSGTKETAFIYAVMAAGLVHSVTRSCSAGNMTECSCDTTLQNGGSASEGWHWGGCSDDVQYGMWFSRKFLDFPIGNTTGKENKVLLAMNLHNNEAGRQAVAKLMSVDCRCHGVSGSCAVKTCWKTMSSFEKIGHLLKDKYENSIQISDKTKRKMRRREKDQRKIPIHKDDLLYVNKSPNYCVEDKKLGIPGTQGRECNRTSEGADGCNLLCCGRGYNTHVVRHVERCECKFIWCCYVRCRRCESMTDVHTCK
B12: Wnt2: Wnt polypeptide (protein, UniProt P09544 26-360, looked up)
Protein Wnt-2: SWWYMRATGGSSRVMCDNVPGLVSSQRQLCHRHPDVMRAISQGVAEWTAECQHQFRQHRWNCNTLDRDHSLFGRVLLRSSRESAFVYAISSAGVVFAITRACSQGEVKSCSCDPKKMGSAKDSKGIFDWGGCSDNIDYGIKFARAFVDAKERKGKDARALMNLHNNRAGRKAVKRFLKQECKCHGVSGSCTLRTCWLAMADFRKTGDYLWRKYNGAIQVVMNQDGTGFTVANERFKKPTKNDLVYFENSPDYCIRDREAGSLGTAGRVCNLTSRGMDSCEVMCCGRGYDTSHVTRMTKCGCKFHWCCAVRCQDCLEALDVHTCKAPKNADWTTAT
B13: Wnt6: Wnt polypeptide (protein, UniProt Q9Y6F9 25-365, looked up)
Protein Wnt-6: LWWAVGSPLVMDPTSICRKARRLAGRQAELCQAEPEVVAELARGARLGVRECQFQFRFRRWNCSSHSKAFGRILQQDIRETAFVFAITAAGASHAVTQACSMGELLQCGCQAPRGRAPPRPSGLPGTPGPPGPAGSPEGSAAWEWGGCGDDVDFGDEKSRLFMDARHKRGRGDIRALVQLHNNEAGRLAVRSHTRTECKCHGLSGSCALRTCWQKLPPFREVGARLLERFHGASRVMGTNDGKALLPAVRTLKPPGRADLLYAADSPDFCAPNRRTGSPGTRGRACNSSAPDLSGCDLLCCGRGHRQESVQLEENCLCRFHWCCVVQCHRCRVRKELSLCL
B14: Wnt7a: Wnt polypeptide (protein, UniProt O00755 32-349, looked up)
Protein Wnt-7a: LGASIICNKIPGLAPRQRAICQSRPDAIIVIGEGSQMGLDECQFQFRNGRWNCSALGERTVFGKELKVGSREAAFTYAIIAAGVAHAITAACTQGNLSDCGCDKEKQGQYHRDEGWKWGGCSADIRYGIGFAKVFVDAREIKQNARTLMNLHNNEAGRKILEENMKLECKCHGVSGSCTTKTCWTTLPQFRELGYVLKDKYNEAVHVEPVRASRNKRPTFLKIKKPLSYRKPMDTDLVYIEKSPNYCEEDPVTGSVGTQGRACNKTAPQASGCDLMCCGRGYNTHQYARVWQCNCKFHWCCYVKCNTCSERTEMYTCK

System: one or more non-cardiac cells types
Details: cited from earlier work

Molecule | Wnt signaling pathway shown in one or more non-cardiac cell types
Wnt10b: Wnt polypeptide | signal via the canonical pathway
B1 | signal via the canonical pathway
B2 | signal via the canonical pathway
B3 | signal via the non-canonical signaling pathway
B4 | signal via the canonical pathway
B5 | signal via the non-canonical signaling pathway
B6 | signal via the canonical pathway
B7 | signal via the canonical pathway
B8 | signal via the canonical pathway
B9 | signal via the non-canonical signaling pathway
B10 | signal via the non-canonical signaling pathway
B11 | signal via the canonical pathway
B12 | signal via the canonical pathway
B13 | signal via the canonical pathway
B14 | signal via the canonical pathway
